Measurements as given in publication PMC6128827.

Biological target: three-helix bundle composed of syntaxin-1A and SNAP-25 (rat) (UniProt P32851)
Test: magnetic tweezers; single pre-assembled SNARE complex held between a PEG-biotin glass surface (NeutrAvidin) and an anti-digoxigenin magnetic bead by two 510-bp DNA handles; force ramps at 1 pN/s, force jumps and 1.2-kHz tracking at 10-16 pN; PBS pH 7.4 with 2.5 uM free SNAP-25; no Cpx

rat synaptobrevin-2 (2–97, L32C/I97C) (from UniProt P63045 2-97) (domain or fragment)
average unzipping force (without Cpx): 14.4 pN
